Article PMC5340530, “YOD1/TRAF6 association balances p62-dependent IL-1 signaling to NF-κB” (eLife, 2017)
One block for each binder: values may come before it.

Target: T1, recombinant GST-YOD1 (UniProt Q5VVQ6 1-348)
T1 construct: YOD1 (OTUD2, DUBA8); A GST-YOD1 truncation product is seen in the blots (asterisk)
Assay: pull-down; GST-YOD1 (or GST) on Glutathione Sepharose 4B; candidate protein incubated 2 hr at 4°C in assay buffer with 0,5% Triton X100; Western blot or Coomassie
Conditions: both partners purified

binding result: binds
B1: HIS-TRAF6 CC-MATH (310-522) (domain or fragment, UniProt Q9Y4K3 310-522, looked up)
chain: DHQIRELTAKMETQSMYVSELKRTIRTLEDKVAEIEAQQCNGIYIWKIGNFGMHLKCQEEEKPVVIHSPGFYTGKPGYKLCMRLHLQLPTAQRCANYISLFVHTMQGEYDSHLPWPFQGTIRLTILDQSEAPVRQNHEEIMDAKPELLAFQRPTIPRNPKGFGYVTFMHLEALRQRTFIKDDTLLVRCEVSTRFDMGSLRREGFQPRSTDAGV
notes: TRAF6, coiled-coil and MATH domains, residues 310-522; also called HIS-TRAF6 310–522; TRAF6 C-terminus

binding result: binds
B2: HIS-TRAF6 MATH (346-504) (domain or fragment, UniProt Q9Y4K3 346-504, looked up)
chain: AQQCNGIYIWKIGNFGMHLKCQEEEKPVVIHSPGFYTGKPGYKLCMRLHLQLPTAQRCANYISLFVHTMQGEYDSHLPWPFQGTIRLTILDQSEAPVRQNHEEIMDAKPELLAFQRPTIPRNPKGFGYVTFMHLEALRQRTFIKDDTLLVRCEVSTRFD
notes: also called C-terminal HIS-TRAF6 MATH; TRAF6 MATH domain
